# Test results: the nanobody polyreactivity screen of Harvey et al. (2022)
# Assay: yeast display, Sf9 membrane polyspecificity reagent, FACS + sequencing; frameworks hold sequencing errors
# Outline: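 After 36–48 hours of galactose induction, yeast (Saccharomyces cerevisiae BJ5465) displaying a synthetic nanobody library were stained at 4 °C for 1 hour with 10% biotinylated, detergent-solubilized Sf9 membrane reagent. Streptavidin microbeads enriched the stained cells before FACS sorting into low and high (top ~1%) gates on anti-HA and streptavidin fluorescence. Each clone's polyreactivity label reflects its gate of origin.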
row,Sequence,polyreactivity (PSR sort gate)
1,QVQLVESGGGLVQAGGSLRLSCAASGSIFRVYAMGWYRRAPGKERELVATITWNGGSTYYADSVKGRFTISRDNAKNTVYLQMNSLKPEDTAVYYCAKPTSWRRVLPMDYWGQGTQVTVSS,low polyreactivity
2,QVQLVESGGGLVQAGGSLRLRCAASGSTFVPYAMGWYRQAPWKERELVAAITWNGGRTYYADSVKGRYTISRDNANNTVYLQMNSLKPEDTAVYFCNGLSYTWACYYWGQGTRVTVSS,high polyreactivity
3,QVQLVESGGGLVQAGGSLRLSCAASGRTIYYYAMGWYRQAPGKERELVAAITSGGSTYYADSVKGRFTISRDNEKNTVYLQMNSLKPEDTAVYYCAARPLEGWHYGSWGQGTQVTVSS,low polyreactivity
4,QVHLVESGGGLVQAGGSLRLSCAASGLILSYNAMAWYRQAPGKERELDAAISYSGGSTYYADSVKGRFTITRDNAKNTVYLQMNSLITEDSAVYYCAAVWRRQGSAYLGSYGYDYWGQVTQVTVSS,high polyreactivity
5,QDQLVESGGGLVQAGGSLRLSCAASGRTFVAYAMGWSRQAPGKERELVARISSGGSTYYADSVKGRFTISRDNAKNTVYLQMNSLKPEDTAVYYCAADRGPYFVPWRRYDYWGQGTQVTVSS,low polyreactivity
6,QVQLVESGGGLVQAGGSLRLSCAASGRTFPRYGMGWYRQAPGKERELVATIRTGGRTNYADSVKGRFTISRDNAKNTVYLQMNSLKPEDTAVYYCATDSSKHPYSPTLLKFDYWGQGTQVTVSS,low polyreactivity
7,QVQLVESGGGLVQAGGSLRISCAASRSTFGIYAMGWYRQAPGKERELVAAISFRCGRTYYADSVKGRFTISRDNAKNTVYLQMISLKPEDNAVYYCAATWYWGNAYWGQGTQVTVSS,low polyreactivity
8,QVQLVESGGGLVQAGGSLRLSCAASGFTFYKNTMGWYRQAPGKVRELGAAISSSGSSTYYADSVKGRFTISRDNAKTTVYLQMNSLKPEDTAVYYCAAVSHYPAGYDYWGQGTQVTVSS,high polyreactivity
9,QVQLVESGGGLVQAGGSLRLSCAASGITFYYYTMGWYRQAPGKERELVAGITYRGGRTYYADSVKGRFTISRDNAKNTVYLQMNSLKPEDTAVYYCAADDLGWWFYSGGEDYYYWGQGTQVTVSS,low polyreactivity
10,QVQLVESGGGLVQAGGSLRLSCAASGSTIVQNAMGWYRQAPAKERELVAAISRTGGSTYYADSVKGRFTISRDNAKNTVYLQMNSLKPEDTAVYYCAKRPPHYSWPKLIEFGSWGQGNQVTVSS,high polyreactivity
11,QVQLVESGGGLVQAGGSLRLSCAASGRTFIGYAMGWYRQAPGKERELVAASSSGGNTYYADSVKGRFTISRDNAKNTVYLQMNSLKPEDTAVYYCAAKGYRRVARYFIGDYWGQGTQVTVSS,low polyreactivity
12,QVQLVESGGGLVQAGGSLRVSCAASGRTFLSYTMGWYRPAPGKERQLVARISASGGSTYYADSVKGRFTISRDNAKITVYLQMNSLKPEDTAVYYCARVPYYLYYVTRPYDYWGQGTLVTVSS,low polyreactivity
13,QVWLQESGGGLVQACGSLSLSCAASGTISRDIFMGWYRQAPGKEREFVATIAQGGITNYADSVKGRFTISRDNAKNTVYLQKNSVKPGDTAVYYCEALDGNCYWFYYWGQGTQVTVSS,high polyreactivity
14,QVQLVESGGGLVQAGGSLRLSCAASARNFGYYAMGWYRPAPGKERELVAAISSGGNTYYADSVKGRFTISRDNAKNTVYLQMNSLKPEDTAVYYCNVVYVGWQYGYDYWGQGTQVTVSS,low polyreactivity
15,PVQLVDSGGGLVQAGGSLRLSCGASGRTFRKYGIGWYRQAAGKERELVAGISRSGGTTYYADTVKGRFTISRDTAKNTVYLQMNSLKPEDTAVYYCAKRTGPSGEDYWGQGTQVTVSS,high polyreactivity
16,QVQLVESGGGLVQAGGSLRLSCAASGRIFFYNVMGWYRQAPGKERELVASIRWSGSGTYYADSVKGRFTISRDDAKNTVYLQMNCLKPEETAVYYCAVLGRVGYGVYPVDYWGQGTQVTVSS,high polyreactivity

row,Sequence,polyreactivity (PSR sort gate)
1,QVQLVESGGGLVQAGGSLRLSCAASGITFYIYAMGWYRQAPGKERELVATISWSDGRTYYADSVKGRFTISRDNAKNTVYLQINSLKPEDTAVYYCAADWWYYQFDYEYWGQGTQVTVSS,low polyreactivity
2,QVQLVESGGGLVQAGGSLRLSCAASGFTFRHNTMGWYRQAPGKERELVAAISIGGRTYYADSVKGRFTISRDNAKNTVYLQMNSLKPEDTAVYYCAKLSRGQSPGYDYWGQGTQVTVSS,high polyreactivity
3,QVQLVESGGGLVQAGGSLRLSCAASGSIFYNALGWYRQAPGKERELVASISWSGGTSTYYADSVKGLFTISRDNAKNTVYLQMNSMKPEDTAVYYCAKASRYSSYWMYYWGQGTQVTVSS,high polyreactivity
4,QVQLVESGGGLVQAGGSLRLSCAASGSNFRVYAMGWDRQAPGKERELVAAISSSGGITYYADSVKGRFTISRDNAKNTVYLQMNSLKPEDTAVYYCAKGTVIHVLYDYWGQGTQVTVSS,low polyreactivity
5,QVQLVESGGGLVQAGGSLRLSCAASGIIFRRYAMGWYRQAPGKERELVATITWSGGSTYYADSVKGRFTISRDNAKNTVYLQMNSLKPEDTAVYYCAKRGSRLYRLDYWGQGTQVTVSS,high polyreactivity
6,QVQLVESVGGLVQAGGSLRLSCAASVFNLKSNAMGWYRQATGKERELVAAISSSGGSTYYADSVKGRFTISRDNAKNTVYLQMNSLKPEDTAVYYCNVAQYLRARRPVDYWGHGTQVTVSS,high polyreactivity
7,QVQLVESGGGLVQAGGSLRLSCAASGITFSYNAMGWYRPAPGKERELVAAISSNSDSTYYADSVKGRFTISRDNAKNTVYLQMNSLKPEDTAVYYCAADTPDAPDYSGFYYWGQGTQVTVSS,low polyreactivity
8,QVQLVESGGGLVQAGGSLRLSCAASGSISATYAKGWYRQAPGKERELVAAISRNGGSTYYADSVKGRFTISRDNAKNTVYLQMNSLKPEDTAVYYCATSSSKSMYWGQGTQVTVSS,high polyreactivity
9,QVQLVESGVGLVQAGGSLRLSCAASGLILYTYAMGWYRQAPGKESELVAAINSGGRTNYADSVKGRFTISRDNAKNSVYLQMNSLKPEDTAVYYCAADYGSRVRGFNYWGQGTQVTVSS,low polyreactivity
10,QVQLVESGGGLVQAGGSLRLSCAASGSTFVRNAMGWYRQAPGKEREFVASISSTSGRTYYADSVKGRFTISRDNAKNTVYLQMNRLKPEDTAVYYCAADVPPKYRHRYTLYDYWGQGTQVTVSS,low polyreactivity
11,QVQLVESGGGLVQAGGSLRLSCDASGGIFRFNSMGWYRQAPGKERELVAGISSTYYADSVKGRFTISRDNAKNTVYLQMNSLKPEDTAVYYCAAAGPEEHGYTYPGNNQMESWGQGTQVTVSS,low polyreactivity
12,QVQLVESGGGLVQAGGSLRLTCAASGRIFRTYAMGWYRQAPGKERELVAAISGRGGNTYYADSVKGRFTISRDNAKNTVYLQMNSLKPEDTAVYYCAASKPSRDTQQRWVYAGYDYWGQGTQVTVSS,high polyreactivity
13,QVQLVESGGGLVQAGGSLRLSCAASGYTRFYAMGWYRHAPGKERELVAAISSSGGTTYYADSVKGRLTISRDNAKNTVYLQMNSLKPDDSAVYYCAKYVSYCRTLYEYWGQGTQVTVSS,high polyreactivity
14,QVQLVESGGGLVQAGGSLRLSCAASGSTFFYNAMGWYRQAPGKERELVAAISRGGGITYYADSVKGRFTISRDNAKNTVYLQMNSLKPEDTAVYYCQYLSRGLNTYRSSQGDDDYWGQGTQVTVSS,high polyreactivity
15,QVQLVESGGGLVQAGGSLRLSCAASGSIFNRYTMGWYRQAPGKERELVAAISKRGGSTYYADSVKGRFTISRDNAKNTVYLQMNSLKPEDSAVYYCAAAAYHSGNGGGYWGQGTQVSVSS,high polyreactivity
